Laboratory results: patent US20240287154A1, “MC3R AGONIST PEPTIDES” (The Regents of the University of Michigan, priority 2021, published 2024)
Non-standard residues stand in square brackets, D forms with d. Phe(4-I) = N[C@@H](Cc1ccc(I)cc1)C(=O)O; NMeY = CN[C@@H](Cc1ccc(O)cc1)C(=O)O; Nle = CCCC[C@H](N)C(=O)O; Aib = CC(C)(N)C(=O)O

B1: CTX-1170 (peptide)
peptide: Ac-[Nle][dA]H[Phe(4-I)]R[dW]DR-NH2
SMILES: CCCC[C@H](NC(C)=O)C(=O)N[C@H](C)C(=O)N[C@@H](Cc1c[nH]cn1)C(=O)N[C@@H](Cc1ccc(I)cc1)C(=O)N[C@@H](CCCNC(=N)N)C(=O)N[C@H](Cc1c[nH]c2ccccc12)C(=O)N[C@@H](CC(=O)O)C(=O)N[C@@H](CCCNC(=N)N)C(N)=O
B2: CTX-1167 (peptide)
peptide: Ac-[Nle][dA]H[Phe(4-I)]R[dW]DRFG-OH
SMILES: CCCC[C@H](NC(C)=O)C(=O)N[C@H](C)C(=O)N[C@@H](Cc1c[nH]cn1)C(=O)N[C@@H](Cc1ccc(I)cc1)C(=O)N[C@@H](CCCNC(=N)N)C(=O)N[C@H](Cc1c[nH]c2ccccc12)C(=O)N[C@@H](CC(=O)O)C(=O)N[C@@H](CCCNC(=N)N)C(=O)N[C@@H](Cc1ccccc1)C(=O)NCC(=O)O
B3: CTX-1132 (peptide)
peptide: H-YV[Nle][dF]HFR[dW]D-NH2
SMILES: CCCC[C@H](NC(=O)[C@@H](NC(=O)[C@@H](N)Cc1ccc(O)cc1)C(C)C)C(=O)N[C@H](Cc1ccccc1)C(=O)N[C@@H](Cc1c[nH]cn1)C(=O)N[C@@H](Cc1ccccc1)C(=O)N[C@@H](CCCNC(=N)N)C(=O)N[C@H](Cc1c[nH]c2ccccc12)C(=O)N[C@@H](CC(=O)O)C(N)=O
B4: CTX-1145 (peptide)
peptide: Ac-[Nle][dA]HFR[dW]DR[dF]G-OH
SMILES: CCCC[C@H](NC(C)=O)C(=O)N[C@H](C)C(=O)N[C@@H](Cc1c[nH]cn1)C(=O)N[C@@H](Cc1ccccc1)C(=O)N[C@@H](CCCNC(=N)N)C(=O)N[C@H](Cc1c[nH]c2ccccc12)C(=O)N[C@@H](CC(=O)O)C(=O)N[C@@H](CCCNC(=N)N)C(=O)N[C@H](Cc1ccccc1)C(=O)NCC(=O)O
B5: CTX-1141 (peptide)
peptide: H-[NMeY]V[Nle][dA]HFR[dW]D-NH2
SMILES: CCCC[C@H](NC(=O)[C@@H](NC(=O)[C@H](Cc1ccc(O)cc1)NC)C(C)C)C(=O)N[C@H](C)C(=O)N[C@@H](Cc1c[nH]cn1)C(=O)N[C@@H](Cc1ccccc1)C(=O)N[C@@H](CCCNC(=N)N)C(=O)N[C@H](Cc1c[nH]c2ccccc12)C(=O)N[C@@H](CC(=O)O)C(N)=O
B6: CTX-1108 (peptide)
peptide: H-YV[Nle][dA]HFR[dW]D-NH2
SMILES: CCCC[C@H](NC(=O)[C@@H](NC(=O)[C@@H](N)Cc1ccc(O)cc1)C(C)C)C(=O)N[C@H](C)C(=O)N[C@@H](Cc1c[nH]cn1)C(=O)N[C@@H](Cc1ccccc1)C(=O)N[C@@H](CCCNC(=N)N)C(=O)N[C@H](Cc1c[nH]c2ccccc12)C(=O)N[C@@H](CC(=O)O)C(N)=O
B7: CTX-1169 (peptide)
peptide: Ac-[Nle][dA]H[Phe(4-I)]R[dW]DRF-NH2
SMILES: CCCC[C@H](NC(C)=O)C(=O)N[C@H](C)C(=O)N[C@@H](Cc1c[nH]cn1)C(=O)N[C@@H](Cc1ccc(I)cc1)C(=O)N[C@@H](CCCNC(=N)N)C(=O)N[C@H](Cc1c[nH]c2ccccc12)C(=O)N[C@@H](CC(=O)O)C(=O)N[C@@H](CCCNC(=N)N)C(=O)N[C@@H](Cc1ccccc1)C(N)=O
B8: CTX-1158 (peptide)
peptide: Ac-[Nle][dA]HFR[dW]DRF-NH2
SMILES: CCCC[C@H](NC(C)=O)C(=O)N[C@H](C)C(=O)N[C@@H](Cc1c[nH]cn1)C(=O)N[C@@H](Cc1ccccc1)C(=O)N[C@@H](CCCNC(=N)N)C(=O)N[C@H](Cc1c[nH]c2ccccc12)C(=O)N[C@@H](CC(=O)O)C(=O)N[C@@H](CCCNC(=N)N)C(=O)N[C@@H](Cc1ccccc1)C(N)=O
B9: CTX-1159 (peptide)
peptide: Ac-[Nle][dA]HFR[dW]DR[dF]-NH2
SMILES: CCCC[C@H](NC(C)=O)C(=O)N[C@H](C)C(=O)N[C@@H](Cc1c[nH]cn1)C(=O)N[C@@H](Cc1ccccc1)C(=O)N[C@@H](CCCNC(=N)N)C(=O)N[C@H](Cc1c[nH]c2ccccc12)C(=O)N[C@@H](CC(=O)O)C(=O)N[C@@H](CCCNC(=N)N)C(=O)N[C@H](Cc1ccccc1)C(N)=O
B10: CTX-1548 (peptide)
peptide: H-YVMGRFR[dW]DRFG-OH
SMILES: CSCC[C@H](NC(=O)[C@@H](NC(=O)[C@@H](N)Cc1ccc(O)cc1)C(C)C)C(=O)NCC(=O)N[C@@H](CCCNC(=N)N)C(=O)N[C@@H](Cc1ccccc1)C(=O)N[C@@H](CCCNC(=N)N)C(=O)N[C@H](Cc1c[nH]c2ccccc12)C(=O)N[C@@H](CC(=O)O)C(=O)N[C@@H](CCCNC(=N)N)C(=O)N[C@@H](Cc1ccccc1)C(=O)NCC(=O)O
B11: CTX-1547 (peptide)
peptide: H-MGHFR[dW]DRFG-OH
SMILES: CSCC[C@H](N)C(=O)NCC(=O)N[C@@H](Cc1c[nH]cn1)C(=O)N[C@@H](Cc1ccccc1)C(=O)N[C@@H](CCCNC(=N)N)C(=O)N[C@H](Cc1c[nH]c2ccccc12)C(=O)N[C@@H](CC(=O)O)C(=O)N[C@@H](CCCNC(=N)N)C(=O)N[C@@H](Cc1ccccc1)C(=O)NCC(=O)O
B12: CTX-1160 (peptide)
peptide: Ac-[Nle][dA]HFR[dW]DR[dF]K-OH
SMILES: CCCC[C@H](NC(C)=O)C(=O)N[C@H](C)C(=O)N[C@@H](Cc1c[nH]cn1)C(=O)N[C@@H](Cc1ccccc1)C(=O)N[C@@H](CCCNC(=N)N)C(=O)N[C@H](Cc1c[nH]c2ccccc12)C(=O)N[C@@H](CC(=O)O)C(=O)N[C@@H](CCCNC(=N)N)C(=O)N[C@H](Cc1ccccc1)C(=O)N[C@@H](CCCCN)C(=O)O
B13: CTX-1143 (peptide)
peptide: Ac-[Nle][Aib]HFR[dW]DRFG-OH
SMILES: CCCC[C@H](NC(C)=O)C(=O)NC(C)(C)C(=O)N[C@@H](Cc1c[nH]cn1)C(=O)N[C@@H](Cc1ccccc1)C(=O)N[C@@H](CCCNC(=N)N)C(=O)N[C@H](Cc1c[nH]c2ccccc12)C(=O)N[C@@H](CC(=O)O)C(=O)N[C@@H](CCCNC(=N)N)C(=O)N[C@@H](Cc1ccccc1)C(=O)NCC(=O)O
B14: CTX-1130 (peptide)
peptide: H-YV[Nle][Aib]HFR[dW]D-NH2
SMILES: CCCC[C@H](NC(=O)[C@@H](NC(=O)[C@@H](N)Cc1ccc(O)cc1)C(C)C)C(=O)NC(C)(C)C(=O)N[C@@H](Cc1c[nH]cn1)C(=O)N[C@@H](Cc1ccccc1)C(=O)N[C@@H](CCCNC(=N)N)C(=O)N[C@H](Cc1c[nH]c2ccccc12)C(=O)N[C@@H](CC(=O)O)C(N)=O
B15: CTX-1105 (peptide)
peptide: H-YVEGHFR[dW]DRFG-NH2
SMILES: CC(C)[C@H](NC(=O)[C@@H](N)Cc1ccc(O)cc1)C(=O)N[C@@H](CCC(=O)O)C(=O)NCC(=O)N[C@@H](Cc1c[nH]cn1)C(=O)N[C@@H](Cc1ccccc1)C(=O)N[C@@H](CCCNC(=N)N)C(=O)N[C@H](Cc1c[nH]c2ccccc12)C(=O)N[C@@H](CC(=O)O)C(=O)N[C@@H](CCCNC(=N)N)C(=O)N[C@@H](Cc1ccccc1)C(=O)NCC(N)=O
B16: CTX-1142 (peptide)
peptide: H-[dY]V[Nle][dA]HFR[dW]D-NH2
SMILES: CCCC[C@H](NC(=O)[C@@H](NC(=O)[C@H](N)Cc1ccc(O)cc1)C(C)C)C(=O)N[C@H](C)C(=O)N[C@@H](Cc1c[nH]cn1)C(=O)N[C@@H](Cc1ccccc1)C(=O)N[C@@H](CCCNC(=N)N)C(=O)N[C@H](Cc1c[nH]c2ccccc12)C(=O)N[C@@H](CC(=O)O)C(N)=O

Each binder was assayed against human MC3R (human, UniProt P41968 1-323) (assay: cell-based or functional assay).
human MC3R, sequence (P41968 whole entry): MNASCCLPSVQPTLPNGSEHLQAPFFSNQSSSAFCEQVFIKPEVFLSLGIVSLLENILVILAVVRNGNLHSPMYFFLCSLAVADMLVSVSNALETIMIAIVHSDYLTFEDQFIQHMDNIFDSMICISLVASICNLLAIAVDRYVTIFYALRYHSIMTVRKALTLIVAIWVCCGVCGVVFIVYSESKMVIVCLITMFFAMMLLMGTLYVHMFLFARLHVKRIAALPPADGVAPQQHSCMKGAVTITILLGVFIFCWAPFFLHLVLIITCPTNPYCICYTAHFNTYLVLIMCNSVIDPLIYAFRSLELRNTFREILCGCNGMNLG
YVXAHFRWDRFG (Nle at 3; D-Ala at 4; Phe(4-Cl) at 6; D-Trp at 8) [CTX-2121] was tested, and the “MC3R cAMP (EC50)” value was 2.5 nM and the “MC3R selectivity (relative to MC4R)” value was 93. In the case of B1, the “MC3R cAMP (EC50)” value is reported as 26 nM and the “MC3R selectivity (relative to MC4R)” value is reported as 67. With B2 the “MC3R cAMP (EC50)” value was 4.8 nM and the “MC3R selectivity (relative to MC4R)” value was 937. With B3 the “MC3R cAMP (EC50)” value was 3.9 nM and the “MC3R selectivity (relative to MC4R)” value was 6.8. B4 was tested, and the “MC3R cAMP (EC50)” value was 52.9 nM and the “MC3R selectivity (relative to MC4R)” value was 535. With B5 the “MC3R cAMP (EC50)” value was 2.2 nM and the “MC3R selectivity (relative to MC4R)” value was 55. B6 was tested, and the “MC3R cAMP (EC50)” value was 12 nM and the “MC3R selectivity (relative to MC4R)” value was 79. YVXAHFRWDRFG (Nle at 3; D-Ala at 4; Phe(4-I) at 6; D-Trp at 8) [CTX-2122] was tested, and the “MC3R cAMP (EC50)” value was 3.2 nM and the “MC3R selectivity (relative to MC4R)” value was 324. For B7, the “MC3R cAMP (EC50)” value was 4.8 nM and the “MC3R selectivity (relative to MC4R)” value was 200. With B8 the “MC3R cAMP (EC50)” value was 2.6 nM and the “MC3R selectivity (relative to MC4R)” value was 535. YVXAHFRWDRFG (Nle at 3; D-Ala at 4; D-Trp at 8; D-Arg at 10) [CTX-1126] was tested, and the “MC3R cAMP (EC50)” value was 3 nM and the “MC3R selectivity (relative to MC4R)” value was 43. B9 was tested, and the “MC3R cAMP (EC50)” value was 14.3 nM and the “MC3R selectivity (relative to MC4R)” value was 213. With YVXAHFRWDRFG (Nle at 3; D-Ala at 4; D-Trp at 8; D-Phe at 11) [CTX-1127] the “MC3R cAMP (EC50)” value was 2.5 nM and the “MC3R selectivity (relative to MC4R)” value was 95. For B10, the “MC3R cAMP (EC50)” value was 3.8 nM and the “MC3R selectivity (relative to MC4R)” value was 267. With YVXAHFRWDRFG (Nle at 3; D-Ala at 4; Phe(4-Br) at 6; D-Trp at 8) [CTX-2120] the “MC3R cAMP (EC50)” value was 2.3 nM and the “MC3R selectivity (relative to MC4R)” value was 173. With B11 the “MC3R cAMP (EC50)” value was 1.5 nM and the “MC3R selectivity (relative to MC4R)” value was 54. With YVXXHFRWDRFG (Nle at 3; Aib at 4; D-Trp at 8) [CTX-1134] the “MC3R cAMP (EC50)” value was 2.5 nM and the “MC3R selectivity (relative to MC4R)” value was 566. In the case of YVXAHFRWDRFG (Nle at 3; D-Ala at 4; D-Trp at 8) [CTX-1103], the “MC3R cAMP (EC50)” value is reported as 4.3 nM and the “MC3R selectivity (relative to MC4R)” value is reported as 229. For B12, the “MC3R cAMP (EC50)” value was 9.8 nM and the “MC3R selectivity (relative to MC4R)” value was 1260. In the case of B13, the “MC3R cAMP (EC50)” value is reported as 13.4 nM and the “MC3R selectivity (relative to MC4R)” value is reported as 3540. For B14, the “MC3R cAMP (EC50)” value was 26.5 nM and the “MC3R selectivity (relative to MC4R)” value was 58. In the case of B15, the “MC3R cAMP (EC50)” value is reported as 20 nM and the “MC3R selectivity (relative to MC4R)” value is reported as 500. YVXGRFRWDRFG (Nle at 3; D-Trp at 8) [CTX-1549] was tested, and the “MC3R cAMP (EC50)” value was 2.4 nM and the “MC3R selectivity (relative to MC4R)” value was 102. With B16 the “MC3R cAMP (EC50)” value was 36 nM and the “MC3R selectivity (relative to MC4R)” value was 54.
